US20240270846A1 (published 2024)
Substitutions are numbered along the chain they refer to. Numbers in names are those of the source.

B1: CE115HA000 A56D one-arm antibody (antibody, human IgG1, kappa, L234A L235A, N297A, name in Kabat numbering)
heavy: QVQLVESGGGVVQPGRSLRLSCAASGFTFSNAWMHWVRQAPGKGLEWVAQIKAKSNNYDTYYAESVKGRFTISRDDSKNSLYLQMNSLKTEDTAVYYCRYVHYGAYYGVDAWGQGTTVTVSSASTKGPSVFPLAPSSKSTSGGTAALGCLVKDYFPEPVTVSWNSGALTSGVHTFPAVLQSSGLYSLSSVVTVPSSSLGTQTYICNVNHKPSNTKVDKKVEPKSCDKTHTCPPCPAPEAAGGPSVFLFPPKPKDTLMISRTPEVTCVVVDVSHEDPEVKFNWYVDGVEVHNAKTKPREEQYASTYRVVSVLTVLHQDWLNGKEYKCKVSNKALPAPIEKTISKAKGQPREPQVYTLPPSRCELTKNQVSLSCAVKGFYPSDIAVEWESNGQPENNYKTTPPVLDSDGSFFLVSKLTVDKSRWQQGNVFSCSVMHEALHNHYTQKSLSLSPDYKDDDDK
chain: EPKSSDKTHTCPPCPAPELLGGPSVFLFPPKPKDTLMISRTPEVTCVVVDVSHEDPEVKFNWYVDGVEVHNAKTKPREEQYNSTYRVVSVLTVLHQDWLNGKEYKCKVSNKALPAPIEKTISKAKGQPREPQVCTLPPSRDELTKNQVSLWCLVKGFYPSDIAVEWESNGQPENNYKTTPPVLDSDGSFFLYSKLTVDKSRWQQGNVFSCSVMHEALHNRYTQKSLSLSP
light: DIVMTQSPLSLPVTPGEPASISCRSSQSLVHSNRNTYLHWYQQKPGQAPRLLIYKVSNRFSGVPDRFSGSGSGTDFTLKISRVEAEDVGVYYCGQGTQVPYTFGQGTKLEIKRTVAAPSVFIFPPSDEQLKSGTASVVCLLNNFYPREAKVQWKVDNALQSGNSQESVTEQDSKDSTYSLSSTLTLSKADYEKHKVYACEVTHQGLSSPVTKSFNRGEC
notes: one-arm antibody
B2: CE115HA000 D72A one-arm antibody (antibody, human IgG1, kappa, L234A L235A, N297A, name in Kabat numbering)
heavy: B1 heavy with D59A, D75A
chain: B1 chain
light: B1 light
notes: one-arm antibody
B3: CE115HA000 H35N one-arm antibody (antibody, human IgG1, kappa, L234A L235A, N297A, name in Kabat numbering)
heavy: B1 heavy with H35N, D59A
chain: B1 chain
light: B1 light
notes: one-arm antibody
B4: CE115HA000 D73A one-arm antibody (antibody, human IgG1, kappa, L234A L235A, N297A, name in Kabat numbering)
heavy: B1 heavy with D59A, D76A
chain: B1 chain
light: B1 light
notes: one-arm antibody
B5: CE115HA000 H35G one-arm antibody (antibody, human IgG1, kappa, L234A L235A, N297A, name in Kabat numbering)
heavy: B1 heavy with H35G, D59A
chain: B1 chain
light: B1 light
notes: one-arm antibody
B6: CE115HA000 H35D one-arm antibody (antibody, human IgG1, kappa, L234A L235A, N297A, name in Kabat numbering)
heavy: B1 heavy with H35D, D59A
chain: B1 chain
light: B1 light
notes: one-arm antibody
B7: CE115HA000 A60D one-arm antibody (antibody, human IgG1, kappa, L234A L235A, N297A, name in Kabat numbering)
heavy: B1 heavy with D59A, A63D
chain: B1 chain
light: B1 light
notes: one-arm antibody
B8: CE115HA000 H35W one-arm antibody (antibody, human IgG1, kappa, L234A L235A, N297A, name in Kabat numbering)
heavy: B1 heavy with H35W, D59A
chain: B1 chain
light: B1 light
notes: one-arm antibody
B9: CE115HA000 A56K one-arm antibody (antibody, human IgG1, kappa, L234A L235A, N297A, name in Kabat numbering)
heavy: B1 heavy with D59K
chain: B1 chain
light: B1 light
notes: one-arm antibody
B10: CE115HA000 H35R one-arm antibody (antibody, human IgG1, kappa, L234A L235A, N297A, name in Kabat numbering)
heavy: B1 heavy with H35R, D59A
chain: B1 chain
light: B1 light
notes: one-arm antibody
B11: CE115HA000 D73K one-arm antibody (antibody, human IgG1, kappa, L234A L235A, N297A, name in Kabat numbering)
heavy: B1 heavy with D59A, D76K
chain: B1 chain
light: B1 light
notes: one-arm antibody
B12: CE115HA000 H35M one-arm antibody (antibody, human IgG1, kappa, L234A L235A, N297A, name in Kabat numbering)
heavy: B1 heavy with H35M, D59A
chain: B1 chain
light: B1 light
notes: one-arm antibody
B13: CE115HA000 H35K one-arm antibody (antibody, human IgG1, kappa, L234A L235A, N297A, name in Kabat numbering)
heavy: B1 heavy with H35K, D59A
chain: B1 chain
light: B1 light
notes: one-arm antibody
B14: CE115HA000 H35Y one-arm antibody (antibody, human IgG1, kappa, L234A L235A, N297A, name in Kabat numbering)
heavy: B1 heavy with H35Y, D59A
chain: B1 chain
light: B1 light
notes: one-arm antibody
B15: CE115HA000 H35F one-arm antibody (antibody, human IgG1, kappa, L234A L235A, N297A, name in Kabat numbering)
heavy: B1 heavy with H35F, D59A
chain: B1 chain
light: B1 light
notes: one-arm antibody
B16: CE115HA000 H35S one-arm antibody (antibody, human IgG1, kappa, L234A L235A, N297A, name in Kabat numbering)
heavy: B1 heavy with H35S, D59A
chain: B1 chain
light: B1 light
notes: one-arm antibody
B17: CE115HA000 H35Q one-arm antibody (antibody, human IgG1, kappa, L234A L235A, N297A, name in Kabat numbering)
heavy: B1 heavy with H35Q, D59A
chain: B1 chain
light: B1 light
notes: one-arm antibody
B18: CE115HA000 E61D one-arm antibody (antibody, human IgG1, kappa, L234A L235A, N297A, name in Kabat numbering)
heavy: B1 heavy with D59A, E64D
chain: B1 chain
light: B1 light
notes: one-arm antibody
B19: CE115HA000 H35L one-arm antibody (antibody, human IgG1, kappa, L234A L235A, N297A, name in Kabat numbering)
heavy: B1 heavy with H35L, D59A
chain: B1 chain
light: B1 light
notes: one-arm antibody
B20: CE115HA000 G65E one-arm antibody (antibody, human IgG1, kappa, L234A L235A, N297A, name in Kabat numbering)
heavy: B1 heavy with D59A, G68E
chain: B1 chain
light: B1 light
notes: one-arm antibody
B21: CE115HA000 G65D one-arm antibody (antibody, human IgG1, kappa, L234A L235A, N297A, name in Kabat numbering)
heavy: B1 heavy with D59A, G68D
chain: B1 chain
light: B1 light
notes: one-arm antibody
B22: CE115HA000 H35E one-arm antibody (antibody, human IgG1, kappa, L234A L235A, N297A, name in Kabat numbering)
heavy: B1 heavy with H35E, D59A
chain: B1 chain
light: B1 light
notes: one-arm antibody
B23: CE115HA000 H35V one-arm antibody (antibody, human IgG1, kappa, L234A L235A, N297A, name in Kabat numbering)
heavy: B1 heavy with H35V, D59A
chain: B1 chain
light: B1 light
notes: one-arm antibody
B24: CE115HA000 A56G one-arm antibody (antibody, human IgG1, kappa, L234A L235A, N297A, name in Kabat numbering)
heavy: B1 heavy with D59G
chain: B1 chain
light: B1 light
notes: one-arm antibody
B25: CE115HA000 D72E one-arm antibody (antibody, human IgG1, kappa, L234A L235A, N297A, name in Kabat numbering)
heavy: B1 heavy with D59A, D75E
chain: B1 chain
light: B1 light
notes: one-arm antibody
B26: CE115HA000 H35T one-arm antibody (antibody, human IgG1, kappa, L234A L235A, N297A, name in Kabat numbering)
heavy: B1 heavy with H35T, D59A
chain: B1 chain
light: B1 light
notes: one-arm antibody
B27: CE115HA000 D73E one-arm antibody (antibody, human IgG1, kappa, L234A L235A, N297A, name in Kabat numbering)
heavy: B1 heavy with D59A, D76E
chain: B1 chain
light: B1 light
notes: one-arm antibody
B28: CE115HA000 F29V one-arm antibody (antibody, human IgG1, kappa, L234A L235A, N297A, name in Kabat numbering)
heavy: B1 heavy with F29V, D59A
chain: B1 chain
light: B1 light
notes: one-arm antibody
B29: CE115HA000 D73G one-arm antibody (antibody, human IgG1, kappa, L234A L235A, N297A, name in Kabat numbering)
heavy: B1 heavy with D59A, D76G
chain: B1 chain
light: B1 light
notes: one-arm antibody
B30: CE115HA000 E61A one-arm antibody (antibody, human IgG1, kappa, L234A L235A, N297A, name in Kabat numbering)
heavy: B1 heavy with D59A, E64A
chain: B1 chain
light: B1 light
notes: one-arm antibody
B31: CE115HA000 A60E one-arm antibody (antibody, human IgG1, kappa, L234A L235A, N297A, name in Kabat numbering)
heavy: B1 heavy with D59A, A63E
chain: B1 chain
light: B1 light
notes: one-arm antibody
B32: CE115HA000 H35I one-arm antibody (antibody, human IgG1, kappa, L234A L235A, N297A, name in Kabat numbering)
heavy: B1 heavy with H35I, D59A
chain: B1 chain
light: B1 light
notes: one-arm antibody

What follows are binders tested against T1, CD3 epsilon homodimer protein (UniProt P07766 23-126) (assay: SPR Biacore T200, antibody over immobilised CD3e homodimer;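 further: CD3 epsilon homodimer amine-coupled on a CM4 chip, run at 25 °C in HBS-EP+, Z = bound amount of each single-residue H chain variant over that of the parent antibody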).
T1 construct: also called CD3 (CD3 epsilon)
T1 sequence (P07766 23-126): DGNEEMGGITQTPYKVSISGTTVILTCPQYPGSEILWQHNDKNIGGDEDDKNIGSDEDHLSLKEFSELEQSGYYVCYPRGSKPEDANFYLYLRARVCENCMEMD
Experimental: An appropriate amount of CD3 epsilon homodimer protein was immobilized onto Sensor chip CM4 (GE Healthcare Japan Corp.) by the amine coupling method. Then, the antibody having an appropriate concentration was injected thereto as an analyte and allowed to interact with the CD3 epsilon homodimer protein on the sensor chip. Then, the sensor chip was regenerated by the injection of 10 mmol/L glycine-HCl (pH 1.5). The assay was conducted at 25 degrees C., and HBS-EP+(GE Healthcare Japan Corp.) was used as a running buffer. […] Each parameter was calculated using Biacore T200 Evaluation Software (GE Healthcare Japan Corp.).
Specifically, when the amount of the antibody comprising CE115HA000 bound was defined as X and the amount of the H chain one-amino acid altered form bound was defined as Y, a value of Z (ratio of amounts bound)=Y/X was used.

First: B1
Second: B2
The “ratio of amounts bound (Z=Y/X vs CE115HA000)” value (from here on “ratio of amounts bound”) of the first is lower: 0.51 for the first, 1.41 for the second.

Compared with B3, B4 is higher in “ratio of amounts bound” value: 0.35 for the first, 0.83 for the second.

First: B5
Second: B6
The “ratio of amounts bound” value of the first is higher: 0.22 for the first, 0.2 for the second.

First: B7
Second: B8
The “ratio of amounts bound” value of the first is higher: 0.99 for the first, 0.22 for the second.

First: B9
Second: B10
The “ratio of amounts bound” value of the first is higher: 1.35 for the first, 0.14 for the second.

First: B11
Second: B12
The “ratio of amounts bound” value of the first is higher: 0.87 for the first, 0.29 for the second.

Going from B13 to B14, the “ratio of amounts bound” value rises from 0.15 to 0.16.

First: B15
Second: B16
The “ratio of amounts bound” value of the first is lower: 0.21 for the first, 0.23 for the second.

First: B17
Second: B18
The “ratio of amounts bound” value of the first is lower: 0.13 for the first, 0.91 for the second.

Compared with B19, B20 is higher in “ratio of amounts bound” value: 0.11 for the first, 0.78 for the second.

Compared with B21, B22 is lower in “ratio of amounts bound” value: 0.76 for the first, 0.19 for the second.

Going from B23 to B24, the “ratio of amounts bound” value rises from 0.22 to 0.61.

Compared with B25, B26 is lower in “ratio of amounts bound” value: 1.05 for the first, 0.26 for the second.

First: B27
Second: B28
The “ratio of amounts bound” value of the first is higher: 0.73 for the first, 0.36 for the second.

Going from B29 to B30, the “ratio of amounts bound” value rises from 1.07 to 1.09.

Compared with B31, B32 is lower in “ratio of amounts bound” value: 0.94 for the first, 0.12 for the second.
